B1: FHCCP6-8(H384): recombinant protein of Factor H CCPs 6-8, H384 allotype, with N-terminal non-authentic glycine (SEQ ID NO: 1) (protein, listed as Homo sapiens)
chain: MGTLKPCDYPDIKHGGLYHENMRRPYFPVAVGKYYSYYCDEHFETPSGSYWDHIHCTQDGWSPAVPCLRKCYFPYLENGYNQNHGRKFVQGKSIDVACHPGYALPKAQTTVTCMENGWSPTPRCIRVKTCSKSSIDIENGFISESQYTYALKEKAKYQCKLGYVTADGETSGSITCGKDGWSAQPTCI
modifications: VARIANT (1)...(188) Protein sequence of the FHCCP6-8 (H384) construct
B2: FHCCP6-8(Y384): recombinant Factor H CCPs 6-8, Y384 variant obtained by site-directed mutagenesis (SEQ ID NO: 3) (protein, listed as Homo sapiens)
chain: MGTLKPCDYPDIKHGGLYHENMRRPYFPVAVGKYYSYYCDEHFETPSGSYWDHIHCTQDGWSPAVPCLRKCYFPYLENGYNQNYGRKFVQGKSIDVACHPGYALPKAQTTVTCMENGWSPTPRCIRVKTCSKSSIDIENGFISESQYTYALKEKAKYQCKLGYVTADGETSGSITCGKDGWSAQPTCI
modifications: VARIANT (1)...(188) FHCCP6-8 (Y384 allotype of mature Factor H)

How the values were obtained:
Linearized pcDNA3-vector = experiment: Protein/DNA binding assay (agarose gel migration); conditions: 5 μg protein, 30 ng DNA, 30 minutes at 37° C.
Protocol: Plasmid pcDNA3 DNA (Invitrogen) was linearized using EcoR1 (Fermentas) in a buffer accompanying the enzyme.
Linearized pcDNA3-vector (30 ng) was incubated with 5 μg of FHCCP(H384), FHCCP6-8(Y384) or full length FH (positive control) in the binding buffer (as described above) in a total volume of 20 μl for 30 minutes at 37° C. The negative control contained no protein. DNA loading buffer (0.25% (w/v) bromophenol blue, 0.25% (w/v) xylene cyanol, 30% (v/v) glycerol in deionized water) was added (1 μl) and the samples were run on an agarose gel (0.8% (w/v), Cambrex) containing ethidium bromide (Sigma) and visualized by UV. Changes in DNA migration served as a means of evaluating the presence of DNA-protein complexes.

[1] = Microtitre plate assay: biotinylated proteins binding to selectively desulphated 2IS heparin
From the text: (§1) The heparin/HS/DS-binding activities of the FHCCP6-8(H384) and FHCCP6-8(Y384) variants (using biotinylated-FHCCP6-8 constructs), and in some cases full-length Factor H (detected with an antibody), were compared using an assay where the glycosaminoglycans (GAGs) were immobilized on allylamine-coated EpranEx plates (Mahoney et al (2004) Anal. Biochem. 330, 123-129), kindly supplied by Plasso Technology Ltd., Sheffield, UK. Previously, we have shown that heparin/HS can bind non-covalently to surfaces plasma polymerized with allylamine in such a way that these GAGs can still associate with a wide-range of proteins (Mahoney et al. (2005) J. Biol. Chem. 280, 27044-27055; Mahoney et al. (2004) ibid).
The following GAG preparations were analyzed: unfractionated heparins corresponding to the 2nd, 4th and 5th International Standards (denoted here as 2IS, 4IS and 5IS, respectively (Mulloy et al. (2000) Thromb. Haemost. 52, 148-153)); enoxaparin, dalteparin and LMr heparin from Sigma (Cat. No. H3400); selectively desulfated heparins prepared from 2IS heparin as described in Mulloy et al. (1994) Carbohydr. […]
In the case of the biotinylated FHCCP6-8(H384) and FHCCP6-8(Y384) constructs, bound material was detected by adding 200 μl/well of a 1:10,000 dilution of ExtrAvidin alkaline phosphatase (Sigma, Cat. No. E-2636) for 30 minutes. […] For the full-length protein, the level of binding (to 4IS, HSI and HSII) was determined by incubation of the plates for 30 min with MRC OX23 (a monoclonal antibody against factor H (Sim et al. (1983) Biosci. Rep. 3, 1119-1131; 1 μg/well) followed by a 1:1000 dilution of alkaline phosphatase-conjugated goat anti-mouse IgG (Sigma, Cat. No. A-3438) for another 30 minutes. The plates were then developed for 10 min as described above. The absorbance values at 405 nm were determined and corrected against blank wells (i.e., those that contained no GAGs).

[2] = Microtitre plate assay: biotinylated proteins binding to immobilized heparin oligosaccharides of defined length
From the text: FIG. 10: Comparisons of the interactions of FHCCP6-8(H384) and the corresponding Y384 variant with heparin oligomers of different lengths. The binding of biotinylated-FHCCP6-8(H384) (black bars) or biotinylated-FHCCP6-8(Y384) (grey bars) to heparin oligosaccharides (dp4 to dp18) immobilized on microtitre plates plasma polymerized with allylamine. All values are plotted as mean absorbance values (n=8)±S.E.
as §1
In the case of the biotinylated FHCCP6-8(H384) and FHCCP6-8(Y384) constructs, bound material was detected by adding 200 μl/well of a 1:10,000 dilution of ExtrAvidin alkaline phosphatase (Sigma, Cat. No. E-2636) for 30 minutes. […]

CRP = target: T1, CRP (Homo sapiens, UniProt P02741); experiment: Protein/protein binding assay with coated CRP
T1 construct: purchased Calbiochem
T1 sequence (P02741 19-224): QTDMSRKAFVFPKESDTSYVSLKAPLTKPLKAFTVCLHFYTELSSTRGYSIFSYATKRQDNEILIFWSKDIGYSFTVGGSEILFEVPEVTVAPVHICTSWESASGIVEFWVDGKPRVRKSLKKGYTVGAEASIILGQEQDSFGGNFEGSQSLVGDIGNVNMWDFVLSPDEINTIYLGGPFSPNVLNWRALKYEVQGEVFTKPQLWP
Protocol: FMOD was isolated from bovine articular cartilage (Heinghrd et al., (1986) J. Biol. Chem. 261, 13866-13872) and recombinant CRP was obtained from Calbiochem. Deglycosylated FMOD was prepared by treatment with N-glycosiadase F (Roche Applied Science) as previously described (Sjöberg et al. (2005) J. Biol. Chem. 280, 32301-32308).
CRP or FMOD was coated overnight at 4° C. onto microtiter plates (Maxisorp, Nunc) at a concentration of 10 μg/ml in 75 mM sodium carbonate buffer, pH 9.6. Wells treated only with coating buffer or 1% (w/v) BSA (Sigma) in coating buffer (for the assays involving FMOD) were used as negative controls. Between each step the wells were washed extensively with 50 mM Tris-HCl, 150 mM NaCl, 0.1% (v/v) Tween 20, pH 7.5. All wells were blocked with 1% (w/v) BSA (Sigma) in phosphate buffered saline (Invitrogen) for 1 hour at 37° C. […] The amount of bound protein was assessed using a goat polyclonal anti-FH antibody (Quidel, Cat # A312) followed by HRP-labeled anti-goat secondary antibodies (Dako) and the OPD development kit (Dako). Detection of biotinylated protein was performed using a StreptABComplex/HRP-kit from Dako, and in both cases the absorbance at 490 nm was measured to quantify protein binding.

Molecule	DNA-protein complex formation (DNA migration in agarose gel) (Linearized pcDNA3-vector)	effect of removal of 2-O- or N-sulfate on binding ([1]; 2-O-deS or N-deS vs unmodified 2IS)	binding to heparin oligosaccharides relative to the other variant ([2]; 4- to 18-mers)	binding to CRP relative to the other variant (CRP; biotinylated proteins)	binding to 6-O-deS and N-deS/re-N-Ac preparations versus parental 2IS [1]	effect of removal of 2-O-, 2,6-O- or N-sulfates on binding ([1]; vs unmodified 2IS)	oligosaccharide length giving maximal binding [2] [sugars]	binding to CRP relative to the other variant (CRP; detection with polyclonal anti-FH antibody, p<0.03)
B1	retained DNA in its protein-complex form more efficiently	large reduction	bound better	lower CRP binding				
B2	migrated mainly in the non-complexed form				indistinguishable	small effect	~12	bound significantly better

— patent US7829301B2, “Screening assays for binding antagonists of the AMD-associated variant of factor H (H384)” (The University of Manchester, priority 2006, dated 2010)
